The values below come from PMC3979721, “Biochemical Properties of Ectoine Hydroxylases from Extremophiles and Their Wider Taxonomic Distribution among Microorganisms” (PLoS ONE, 2014).

Substrate in series [1]: CC1=N[C@H](C(=O)O)CCN1
Description: HPLC assay of 5-hydroxyectoine formation. The conditions noted are these: apparent, with 2-oxoglutarate, Fe(II), O2, optimum pH 8.0, 32 °C and optimised salt, kcat per homodimer. Format: biochemical, Acidiphilium cryptum. The text has this: (§1) HPLC assay of 5-hydroxyectoine formation on EctD from A. cryptum

Substrate in series [2]: O=C(O)CCC(=O)C(=O)O
Description: HPLC assay of 5-hydroxyectoine formation. The format is biochemical, Acidiphilium cryptum. The conditions noted are these: apparent, co-substrate, with ectoine, Fe(II), O2, pH 8.0, 32 °C.
Text: as §1

Substrate in series [3]: CC1=N[C@H](C(=O)O)CCN1
Description: HPLC assay of 5-hydroxyectoine formation. Format: biochemical, Sphingopyxis alaskensis. The conditions noted are these: apparent, with 2-oxoglutarate, Fe(II), O2, optimum pH 8.0, 40 °C and optimised salt, kcat per homodimer. From the text: (§2) HPLC assay of 5-hydroxyectoine formation on EctD from S. alaskensis

Substrate in series [4]: O=C(O)CCC(=O)C(=O)O
Description: HPLC assay of 5-hydroxyectoine formation. The format is biochemical, Sphingopyxis alaskensis. The settings on record: apparent, co-substrate, with ectoine, Fe(II), O2, pH 8.0, 40 °C.
Text: as §2

Series [5] concerns the molecule itself. Description: SEC; 1 ml of protein at 5 mg/ml on a HiLoad 16/600 Superdex 200 pg column, 20 mM TES-buffer containing 150 NaCl; size against standards of 29, 66 and 150 kDa (Fig. S6). For orientation: Size exclusion chromatography separates by hydrodynamic size, large species first.
Substrate in series [6]: CC1=N[C@H](C(=O)O)CCN1
Description: HPLC assay of 5-hydroxyectoine formation. The conditions noted are these: apparent, with 2-oxoglutarate, Fe(II), O2, optimum pH 7.5, 35 °C and optimised salt, kcat per homodimer. The format is biochemical, Stutzerimonas stutzeri. The text has this: (§3) HPLC assay of 5-hydroxyectoine formation on EctD from P. stutzeri

Substrate in series [7]: O=C(O)CCC(=O)C(=O)O
Description: HPLC assay of 5-hydroxyectoine formation. Format: biochemical, Stutzerimonas stutzeri. The conditions noted are these: apparent, co-substrate, with ectoine, Fe(II), O2, pH 7.5, 35 °C.
Text: as §3

Substrate in series [8]: CC1=N[C@H](C(=O)O)CCN1
Description: HPLC assay of 5-hydroxyectoine formation. Format: biochemical, Halomonas elongata. The settings on record: apparent, with 2-oxoglutarate, Fe(II), O2, optimum pH 8.0, 32 °C and optimised salt, kcat per homodimer. From the text:
(§4) HPLC assay of 5-hydroxyectoine formation on EctD from H. elongata

Substrate in series [9]: O=C(O)CCC(=O)C(=O)O
Description: HPLC assay of 5-hydroxyectoine formation. The format is biochemical, Halomonas elongata. The conditions noted are these: apparent, co-substrate, with ectoine, Fe(II), O2, pH 8.0, 32 °C.
Text: as §4

Substrate in series [10]: CC1=N[C@H](C(=O)O)CCN1
Description: HPLC assay of 5-hydroxyectoine formation. The format is biochemical, Virgibacillus salexigens. The conditions noted are these: apparent, with 2-oxoglutarate, Fe(II), O2, TES buffer, optimum pH 7.5, 32 °C and optimised salt, kcat per homodimer. From the text: (§5) HPLC assay of 5-hydroxyectoine formation on EctD from V. salexigens (VsEctD)

Substrate in series [11]: O=C(O)CCC(=O)C(=O)O
Description: HPLC assay of 5-hydroxyectoine formation. The format is biochemical, Virgibacillus salexigens. The conditions noted are these: apparent, co-substrate, varied 0-50 mM, with ectoine, Fe(II), O2, pH 7.5, 32 °C.
Text: as §5

By Km is commonly meant the substrate concentration at which the rate is half of its maximum. By kcat is commonly meant the maximal rate divided by the concentration of active sites. The kcat/Km is the turnover number divided by the Michaelis constant. As usually defined, the stoichiometry N is a count of units in the complex or per binding partner.

B1: EctD from A. cryptum (Acidiphilium cryptum JF-5) (protein)
chain: MDDLYPSRREPTPSLLPRHDPVVHGRWAPGAPLSDEQTRFYDTNGYLVLENVFDPAEIALLQSGSMDLLANPAGLDRETIITERGSDEVRSIFAIHAQNELLGRLAADSRIAGVARFLLDDDVYIHQSRLNYKPGFDGKEFYWHSDFETWHVEDGMPRMRALSMSILLAENTANNGPLMVIPGSHRKYLTCVGETPENHYRSSLKKQEYGVPDREMLTALASDHGIVAPTGKAGTVVLFDCNTMHGSNGNITPFPRSNAFFVFNAKANSLVEPFGPKSRRPDFIADRAFTTVDIVKGPLVRRERAA
notes: homodimer
Regarding B1, in [1], the Michaelis-Menten constant (Km) turned out to be 10.0 ± 0.6 mM, the kcat stood at 3.4 s⁻¹ and the kcat/Km was found to be 340 M⁻¹ s⁻¹. Moreover, the Michaelis-Menten constant (Km) in series [2] was 4.1 ± 0.4 mM.

B2: Sphingopyxis alaskensis EctD protein (ectoine hydroxylase) (enzyme, UniProt Q1GNW5 1-306, looked up)
chain: MQDLYPSRQRADAEMRPRLDPVVHSEWTNDAPISARQAAAFDRDGYIVLEDIFSADEVAFLQKAAGNLLADPAALDADTIVTEPQSNEIRSIFEIHAQSPVMARLAADARLADVARFLLGDEVYIHQSRLNYKPGFKGREFYWHSDFETWHVEDGMPRMRALSMSVLLAENTPHNGPLMVIPGSHRTYLTCVGETPDDHYLSSLKKQEYGVPDEESLAELAHRHGIVAPTGKPGTVILFDCNLMHGSNGNITPFPRANAFLVYNAVSNRLEKPFGVEKPRPWFLARRGEPAALRVERGPLVETVPA
notes: Ectoine hydroxylase EctD of Sphingopyxis alaskensis; ectD gene amplified from chromosomal DNA; 35.29 kDa with the nine-residue Strep-tag II peptide; Contains about 0.87-0.96 mol iron per mol protein; also called EctD from S. alaskensis; S. alaskensis enzyme; not shown: Strep-tag II, C-terminal, kept
B2: in series [3], the Km is 9.8 ± 0.5 mM, the kcat was 1.2 s⁻¹ and the kcat/Km is 120 M⁻¹ s⁻¹. Further, in series [4], the Km worked out at 2.7 ± 0.3 mM. For the same protein, the “stoichiometry N” value in [5] stood at 2.

B3: EctD from P. stutzeri (Stutzerimonas stutzeri A1501) (protein)
chain: MQADLYPSRQEDQPSWQERLDPVVYRSDLENAPIAAELVERFERDGYLVIPNLFSADEVALFRAELERMRQDPAVAGSGKTIKEPDSGAIRSVFAIHKDNELFARVAADERTAGIARFILGGDLYVHQSRMNFKPGFTGKEFYWHSDFETWHIEDGMPRMRCLSCSILLTDNEPHNGPLMLMPGSHKHYVRCVGATPENHYEKSLRKQEIGIPDQNSLSELASRFGIDCATGPAGSVVFFDCNTMHGSNGNITPSARSNLFYVYNHVDNAVQAPFCEQKPRPAFVAERENFKPLDIRPQQYL
notes: homodimer
As for B3, in series [6], the Km is 6.2 ± 0.4 mM, the kcat is 8.9 s⁻¹ and the kcat/Km came to 1440 M⁻¹ s⁻¹. For the same protein, in series [7], the Km came to 4.6 ± 0.5 mM.

B4: EctD from H. elongata (Halomonas elongata DSM 2581) (protein)
chain: MSVQTSSNRPLPQANLHIATETPEADSRIRSAPRPGQDPYPTRLSEPLDLPWLNRREPVVKGEEADGPLSAAQLDTFERQGFIFEPDFLKGEELEALRHELNALLARDDFRGRDFAITEPQGNEIRSLFAVHYLSRVFSRLANDERLMGRARQILGGEPYVHQSRINYKPGFEGKGFNWHSDFETWHAEDGMPAMHAVSASIVLTDNHTFNGPLMLVPGSHRVFVPCLGETPEDHHRQSLKTQEFGVPSRQALRELIDRHGIEAPTGAAGGLLLFDCNTLHGSNANMSPDPRSNAFFVYNRRDNRCVEPYAASKRRPRFLAHEPDEAWSPDG
notes: homodimer
Consider B4, for which, in [8], the Km stood at 5.7 ± 0.6 mM, the kcat turned out to be 2.8 s⁻¹ and the kcat/Km was found to be 490 M⁻¹ s⁻¹. In [9], the Km was determined as 4.8 ± 0.4 mM, the kcat is 2.8 s⁻¹ and the kcat/Km was 490 M⁻¹ s⁻¹.

B5: EctD from V. salexigens (VsEctD) (Virgibacillus salexigens) (protein)
chain: MEDLYPSRQNNQPKILKRKDPVIYTDRSKDNQAPITKEQLDSYEKNGFLQIKNFFSEDEVIDMQKAIFELQDSIKDVASDKVIREPESNDIRSIFHVHQDDNYFQDVANDKRILDIVRHLLGSDVYVHQSRINYKPGFKGKEFDWHSDFETWHVEDGMPRMRAISVSIALSDNYSFNGPLMLIPGSHNYFVSCVGETPDNNYKESLKKQKLGVPDEESLRELTRIGGGISVPTGKAGSVTLFESNTMHGSTSNITPYPRNNLFMVYNSVKNRLVEPFSGGEKRPEYIAVREKQPVYSAVN
notes: homodimer
Consider B5, for which, in series [10], the Km was found to be 5.9 ± 0.3 mM, the kcat stood at 7.7 s⁻¹ and the kcat/Km amounted to 1310 M⁻¹ s⁻¹. The Km in [11] stood at 4.9 ± 0.3 mM.
